Here are results for 6 molecules from patent publication US20240026407A1, “MODIFICATION OF SAPONINS” (GLAXOSMITHKLINE BIOLOGICALS SA, priority 2020, published 2024).

Common to all, as to format: biochemical, Quillaja saponaria
The nature of assay [1]: Experiment 4-4: screening of glucosidases for deglycosylation of QS-18 in crude bark extract (1 in 20 dilution) to QS-21. To be noted: CBE 1 in 20 dilution, pH 6, 25 degC, 18 hours; % conversion of Middle Peak by UV HPLC. On the procedure:
Lysates were prepared as in Experiment 4-2.
Crude bark extract (CBE) was adjusted to pH 6 by dropwise addition of 2M NaOH with stirring. 25 uL of clarified lysate was transferred to a reaction plate, 22.5 ul of 100 mM potassium phosphate buffer pH 6 was added, 2.5 ul CBE at pH 6 was added. Reaction plates were sealed, incubated at 25 degC with shaking for 18 hours, then quenched by addition of 50 uL acetonitrile (MeCN). Quenched reaction plates were re-sealed and incubated at 20 degC with shaking for 10 min. The reaction plates were centrifuged (10 min, 4 degC) and analysed by UV HPLC with the method below:
Three key peaks of interest are apparent using this chromatography: Left Peak (retention time approximately 2.30-2.35 min) comprising mainly QS-17 family components; Middle Peak (retention time approximately 2.37-2.42 min) comprising mainly QS-18 family components and desglucosyl-QS-17 family components; and Right Peak (retention time approximately 2.44-2.50 min) comprising mainly QS-21 family components. Peak identity was supported by MS/MS.
Enzyme activity is calculated as the % conversion of the Middle Peak present in the crude bark extract: […]

Assay [2] can be described thus: Experiment 4-1: screening of glucosidases for deglycosylation with purified QS-18 (0.04 mg/ml) at pH 7.5 and room temperature. The following applies: pH 7.5, room temperature, 20 h, clarified E. coli lysate, QS-18 2150 to QS-21 1988 by LCMS/MS. In short, it runs like this: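 Deglycosylation measured by LC-MS/MS as % conversion after 20 h room-temperature incubation of QS-18 phenyl fraction (0.04 mg/ml final) with polymyxin B/lysozyme lysates, pH 7.5 phosphate, of E. coli BL21(DE3) expressing each enzyme; MeCN quench. Positives exceeded negative control by >3 S.D.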

A short description of assay [3]: Experiment 4-2: screening of glucosidases for deglycosylation with purified QS-18 (1 mg/ml) at pH 6 and 30 deg C. The following applies: pH 6, 30 degC, 18 hrs, clarified lysate, LCMS/MS. In outline:
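Enzyme activity derived from LC-MS/MS analysis after MeCN quench. Substrate QS-18 (1 mg/ml final) was exposed overnight (18 h, 30 °C, pH 6 phosphate buffer) to clarified lysates containing candidate glucosidases.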

B1: 350 (protein)
chain: MIDDILDKMTLEEQVSLLSGADFWTTVAIERLGVPKIKVTDGPNGARGGGSLVGGVKSACFPVAIALGATWDPELIERAGVALGGQAKSKGASVLLAPTVNIHRSGLNGRNFECYSEDPALTAACAVAYINGVQSQGVAATIKHFVANESEIERQTMSSDVDERTLREIYLPPFEEAVKKAGVKAVMSSYNKLNGTYTSENPWLLTKVLREEWGFDGVVMSDWFGSHSTAETINAGLDLEMPGPWRDRGEKLVAAVREGKVKAETVRASARRILLLLERVGAFEKAPDLAEHALDLPEDRALIRQLGAEGAVLLKNDGVLPLAKSSFDQIAVIGPNAASARVMGGGSARIAAHYTVSPLEGIRAALSNANSLRHAVGCNNNRLIDVFSGEMTVEYFKGRGFESRPVHVETVEKGEFFWFDLPSGDLDLADFSARMTATFVPQETGEHIFGMTNAGLARLFVDGELVVDGYDGWTKGENFFGTANSEQRRAVTLGAARRYRVVVEYEAPKASLDGINICALRFGVEKPLGDAGIAEAVETARKSDIVLLLVGREGEWDTEGLDLPDMRLPGRQEELIEAVAETNPNVVVVLQTGGPIEMPWLGKVRAVLQMWYPGQELGNALADVLFGDVEPAGRLPQTFPKALTDNSAITDDPSIYPGQDGHVRYAEGIFVGYRHHDTREIEPLFPFGFGLGYTRFTWGAPQLSGTEMGADGLTVTVDVTNIGDRAGSDVVQLYVHSPNARVERPFKELRAFAKLKLAPGATGTAVLKIAPRDLAYFDVEAGRFRADAGKYELIVAASAIDIRASVSIHLPVDHVMEP
modifications: Rhizobium radiobacter
As to B1, in assay [1], the “Expt 4-4 % conv” value is given as <3%. Besides, in assay [2], the “Expt 4-1 % conv” value worked out at 2.6%. For the same molecule, the “Expt 4-2 % conv” value in assay [3] is listed as 0.7%.

B2: 240 (protein, listed as Acidipropionibacterium acidipropionici)
chain: MTELTDLPQYLLIRLLSGADDWRTVAAGEVGVRSLHLSDGPHGLRVPDVKGGSLPATCFPTAVTLGASWDRDLAEEVGGALAVEAGALGVDVVLGPGMNIKRHPLGGRNFEYLSEDPVVSGELAAAMVRGIQGRGVAACVKHFAVNNQETMRLCVDAVVDERTLHEIYLAAFETVVRTARPAAVMASYNEINGTAATTNRSLITEVLRGRWGFDGLVMSDWGAVWDRVAALEAGLDLEMPSSAGAFDRSVAAALDSGRLGLDAVLTSVSRLVGLQNRISPPRIDRIPADEHDALARRAATAGTVLAANDGILPLAAGSKVAVIGAFAARPRYQGSGSSQVNPTRVTGLLEALGAKDVEVGYARGYDPEEQRTDAVLVAEAAELAAASDVAVVVTGPPEELESEGYDRTGMDLPAQHDALVRAVLAANPRTVIVVCSGSPVALPWADRAAAVVLAGLGGQAGGGALADVLVGDAEPGGRLAETWPHDLSEVASDPWFPGTGAMVQYREGSAIGYRHTATNGVEPAFCFGHGLSYTRFDWRDAVLTEPWIVAGDGLSVDVEVANVGDRAGSDVVQVYLSDRTGVVSRPRRWLAGFAKVRLEAGQSRRVQVAVGARELGFWDVEKHDWVVPSGHFDVELGRSAHDIVATLDLVVSEGADHAPERAWTPLIAEDDEAFAARLGHEIPRPAATTPFTARSTLGQVRHTPLGGLLHAAAMRRLAAGVRDPRFRRMMEHTVDELPLRNLPSMTKGLVPLESVSLIVDVLNGAPDEILRRSFGGALGLGRGVVDAGRGLWGELSSRIGRLGR
For the molecule B2, the “Expt 4-4 % conv” value in assay [1] was <3%. The “Expt 4-1 % conv” value in assay [2] is 9.0%. Further, in assay [3], the “Expt 4-2 % conv” value is on record as 0.5%.

B3: 133 (protein, listed as Aquimixticola soesokkakensis)
chain: MTDSTATPPDPIAAKLTFARGRDYWTTQAAPEIGLRALRFADGPHGLRVQDDENPDHLGLERSAPATCFPPAVTLASSWDAALIEEVGAALGREARAAGVDVVLGPGLNLKRSPLCGRNFEYYSEDPMLSGLLAGASARGIQSVGVGACLKHFAANSQEGDRNRISADIDERSLRELYLRNFQLALEASGAWSIMTSYNRINGLHASQDPWLLTQVLREEWGFDGLVISDWGGVYDPVAALKAGMDLRMPGGALDDRLIAAHARGEIAEGDLDRVIANTTRLAERTRPRDTDVPPDVEAHHALVRRAAAESSVLLKNDGVLPLDPARYPKVAILGELARTPRIQGSGSSRVHPRRVVAPLDVLRERLAQSGAQVAFAPAYGLQNGPADAALITEALQVARDADIVLLFSGLTDAAEAEGSDRTHIDLPDQQLTLLAALADCDTPLVVSLANGAVVRSTQWRDTAQAIVEFWLSGQAHGETVADVLLGDVPPAGRLAQTIPRRLQDTPAFLDFPGEHRHVRHSEGLHIGYRWYDARDLAVDYPFGHGLSYTSFDYEELEIDVRASDDDIAFVARLTLRNSGARAGSEVVQLYASDPSTAYQTPPRELRGWQKVHLEAGESCAVSIPVKRAHLGHWHSGLKRWVFAGGPMTLHVGASSRDLRLTCETELHGEALPVVLTPWSLFGEWMQHPVMGPRIEALFASRGGVKGRAGDLLSDPAGRNTVYINPLAMLAQFPGVPLDQSDLETLCAEAAALA
Consider B3, for which, in assay [1], the “Expt 4-4 % conv” value is <3%. Moreover, the “Expt 4-1 % conv” value in assay [2] turned out to be 3.7%. Also, in assay [3], the “Expt 4-2 % conv” value stood at 0.4%.

B4: 338 (protein, listed as Hungateiclostridium thermocellum)
chain: MAVDIKKIIKQMTLEEKAGLCSGLDFWHTKPVERLGIPSIMMTDGPHGLRKQREDAEIADINNSVPATCFPSAAGLACSWDRELVERVGAALGEECQAENVSILLGPGANIKRSPLCGRNFEYFSEDPYLSSELAASHIKGVQSQGVGACLKHFAANNQEHRRMTVDTIVDERTLREIYFASFENAVKKARPWVVMCAYNKLNGEYCSENRYLLTEVLKNEWMHDGFVVSDWGAVNDRVSGLDAGLDLEMPTSHGITDKKIVEAVKSGKLSENILNRAVERILKVIFMALENKKENAQYDKDAHHRLARQAAAESMVLLKNEDDVLPLKKSGTIALIGAFVKKPRYQGSGSSHITPTRLDDIYEEIKKAGGDKVNLVYSEGYRLENDGIDEELINEAKKAASSSDVAVVFAGLPDEYESEGFDRTHMSIPENQNRLIEAVAEVQSNIVVVLLNGSPVEMPWIDKVKSVLEAYLGGQALGGALADVLFGEVNPSGKLAETFPVKLSHNPSYLNFPGEDDRVEYKEGLFVGYRYYDTKGIEPLFPFGHGLSYTKFEYSDISVDKKDVSDNSIINVSVKVKNVGKMAGKEIVQLYVKDVKSSVRRPEKELKGFEKVFLNPGEEKTVTFTLDKRAFAYYNTQIKDWHVESGEFLILIGRSSRDIVLKESVRVNSTVKIRKRFTVNSAVEDVMSDSSAAAVLGPVLKEITDALQIDMDNAHDMMAANIKNMPLRSLVGYSQGRLSEEMLEELVDKINNVE
B4: the “Expt 4-4 % conv” value in assay [1] is given as <3%. In assay [2], the “Expt 4-1 % conv” value came out at 6.3%. The “Expt 4-2 % conv” value in assay [3] turned out to be 0.5%.

B5: 116 (protein, listed as Streptomyces netropsis)
chain: MPDDPVDVLDLDTKARLLSGQDMWSLPAVPRIGLRSIVMSDGPVGVRGVRWTADDPSLALPSPTALAATWDPALARRVGRLLAAEARRKGVHVLLAPTVNLHRSPLGGRHFEAYSEDPYLTARIGTGYVRGVQDGGVAAVVKHFVANDAETERFTVNNKVSARALRELYLAPFEAIVKDARPWGVMAAYNQVNGVTMTEHGHLQNDVLRGEWGFDGIVVSDWLAARDTVRAALGGLDVAMPGPVTVYGPALAAAVRAGDVPESVVDDAVRRVLRLADRVGALGEATRARPSAPDGRALAREVAARSFVLVRNAPVRGAPALPLDPAPGLRVALLGGAARDARILGGGSAQVFPARVVSPLDGLRAALPEGAVTYAVGAEPGDELLPAGAGFTLRAVCRDAAGRMLGEERMPSGMVQWLGDLPAGVGYEALRTVELTGTFTPRESGPHVFGTKGVGAFRLVVGGRTLFDGEQGADHADPFEAFLGSPVERGRVVLAAGTAVEVSLTCVVAEPDGAPIEAVGFCLLHREPERDAEELLAEAVAVAASADAAVVVVATTERVESEGFDRTTLALPGRQDELVARVAAVSPRTVVVVNSGSPVELPWRDDVAAVLLGWFPGQEAGGALADVLLGGCEPGGRLPTTWPVRLADAPVTRVAPVGGELAYAEGLFIGYRAWEKARATPAYAFGHGLGYTDWSYETLDMGGTGTARVRVRNTGSRPGREVVQVYLAVPPGDRAGRPVRRLAGFASVEAGPGETVEAVVALDPRAFEVWDDEAAGWRRIPGTYTAEAGRSIADRRLTAPVEVA
For the molecule B5, the “Expt 4-4 % conv” value in assay [1] is listed as <3%. The “Expt 4-1 % conv” value in assay [2] is reported as 4.7%. The “Expt 4-2 % conv” value in assay [3] amounted to 0.5%.

B6: 325 (protein, listed as Ilumatobacter coccineus)
chain: MTGTSTGARRGIICGVIDIDAALNALSLADKCRLVAGETNWRTKAFPEAGIPQLKMSDGPTGIRGEGHGSAGTPGVAVPAGITLGASWDPDLLGEIGDLLGREAVRKRAHVLLGPTVNLHRTPIGGRTFECYSEDPELSGALAASYVRAVQRHDVAVTVKHFVCNDTEIDRMTVDVDVDERPLRELYLRPFERAVKEGGAWGIMTAYNRVAGEFAAQNRRLLTDILRGEWGFDGFAVSDWFGVHEPVGAANAGLTLEMPAPVRVYGDRLLAAIEAGSVTEETVDGLVRDLLGVMNRTKADERNCDEPELSIDDPAERALTRRAAIGGTVLLRNEPIDSSGHPVLPVALDGLASMAVIGPNAVIDRSMGGGSASLTPFDHRTLLDALSDRVGPDTDVRYEPGVRIDRLTPIVRSARLRTPDGADGLRLEYVNGTDWDAPATIDTVTSSSMIRFFGTTPDEIDATAFGARVSGSFVPEIDGPHEIGVVSTGPVTMTARTGDGDPIVVVDDPDMLLPRTREFFGYGSEESVATVECRAGEPVHLEVKWRTSAENGFAALRIGVRPPEPSDLIDRAVAAAAEADVAVVVVGTNDEWETEGFDREVMSLPGRQDELVERVVAANPNTVVVVNAGSPVSMDWAADDHPRPAAAIVTSFFAGQEQAEAMVDVLTGVADPAGRLPITYPQRLADTPAFEHHEPVRSAGRPPQQRYAEGLFIGHRHYEANDVAPRFWLGHGLSYGSVEWSTPTASRTSDTAASLDDSPIVVSLSLTNTSDRDATSVVQCYVAPIAPSVERPVRELKAWAKESLPAQARRDVSIELGSSAFRHWDEESGAWKVEPGEYDIVVATSADPDDEHERLRITIT
Take B6: the “Expt 4-4 % conv” value in assay [1] is <3%. Besides, in assay [2], the “Expt 4-1 % conv” value turned out to be 6.3%. Further, in assay [3], the “Expt 4-2 % conv” value stood at 0.9%.
